Holding throughout (assay): competitive phage ELISA
The target in assay [1] is T1, IGF-I D20A (G1S-A70V background) displayed on phage (human; bacteriophage M13, not fully specified; Displayed monovalently on M13 phage as a C-terminal fusion to the gene III fragment, which is left out of the letters.).
T1 construct: monovalent M13 phage display; not shown: Display carrier: M13 gene III fragment (residues 249-406) and its junction
T1 chain: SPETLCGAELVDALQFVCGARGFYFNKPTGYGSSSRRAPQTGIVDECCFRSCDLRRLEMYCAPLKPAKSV
Summed up: (§1)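 Phage, normalized to a maximal ELISA signal of 0.2-0.4 per mutant, were premixed with threefold serial dilutions of soluble competitor in 0.5% Tween 20/PBS and incubated 1 h at room temperature on immobilized target.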

In assay [2] the target is T2, IGF-I D53A (G1S-A70V background) displayed on phage (human; bacteriophage M13).
T2 construct: monovalent M13 phage display
T2 chain: T1 chain with A20D, D53A
The procedure, abridged: as §1

For assay [3], the target named is T3, IGF-I M59A (G1S-A70V background) displayed on phage (human; bacteriophage M13).
T3 construct: monovalent M13 phage display; not shown: M13 gene III protein fragment (residues 249-406), the phage display carrier, and its junction to IGF-I
T3 chain: T1 chain with A20D, M59A
Summed up:
as §1

Assay [4] concerns the target T4, IGF-I L64A (G1S-A70V background) displayed on phage (human; bacteriophage M13).
T4 construct: monovalent M13 phage display; not shown: M13 gene III protein fragment (residues 249-406), the phage display carrier, and its junction to IGF-I
T4 chain: T1 chain with A20D, L64A
The procedure, abridged:
as §1

The target in assay [5] is T5, IGF-I K68A (G1S-A70V background) displayed on phage (human; bacteriophage M13, UniProt P69168 267-424).
T5 chain: T1 chain with A20D, K68A
The procedure, abridged: as §1

The target in assay [6] is T6, IGF-I T29A (G1S-A70V background) displayed on phage (human; bacteriophage M13).
T6 construct: monovalent M13 phage display; not shown: M13 gene III fragment (residues 249-406, display partner) and the junction to it
T6 chain: T1 chain with A20D, T29A
The procedure, abridged: as §1

The target in assay [7] is T7, IGF-I S35A (G1S-A70V background) displayed on phage (human; bacteriophage M13).
T7 construct: monovalent M13 phage display
T7 chain: T1 chain with A20D, S35A
Summed up:
as §1

The target in assay [8] is T8, IGF-I E9A (G1S-A70V background) displayed on phage (human; bacteriophage M13).
T8 construct: monovalent M13 phage display
T8 chain: T1 chain with E9A, A20D
Summed up:
as §1

Assay [9] concerns the target IGF-I V70A (G1S-A70V background) displayed on phage (human; bacteriophage M13, UniProt P69168 267-424). The procedure, abridged:
as §1

Positions count from the first letter of the chain named.

The text below walks through data of patent publication US20020160955A1 (published 2002).

B1: human IGFBP-1 (other, UniProt P08833 26-259, looked up)
chain: APWQCAPCSAEKLALCPPVSASCSEVTRSAGCGCCPMCALPLGAACGVATARCARGLSCRALPGEQQPLHALTRGQGACVQESDASAPHAAEAGSPESPESTEITEEELLDNFHLMAPSEEDHSILWDAISTYDGSKALHVTNIKKWKEPCRIELYRVVESLAKAQETSGEEISKFYLPNCNKNGFYHSRQCETSMDGEAGLCWCVYPWNGKRIPGSPEIRGDPNCQIYFNVQN
notes: secreted recombinant protein purified from conditioned medium
B1: the IC50 in [1] came out at 8.4 nM; in assay [2], 15.3 nM; in [3] it was 13.1 nM; in assay [4], 12.1 nM; in assay [5], 10.5 nM; in assay [6], 7.3 nM. For the same molecule, the IC50 in assay [7] came out at 11.7 nM; in [8], 8.6 nM; in assay [9], 19.1 nM.

Broadly, the IC50 is the concentration needed to halve the response being measured. A higher IC50 goes with weaker potency in that assay.
